From the supplement of paper PMC12455559

Assay: purified protein yield per well (BCA); higher = higher soluble expression
Procedure, shortened: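 The measured quantity is purified protein yield per well, determined with the Pierce Rapid Gold BCA kit. Anything below 25 ug (0.1 mg/mL) lies under the detection threshold. Enzymes were expressed in E. coli C41(DE3) in 2 mL autoinduction cultures with 100 µg/mL kanamycin at 37 °C for 2 h, then 18 °C for 40 h, and purified on an OT-2 robot using Ni-charged magnetic beads and SUMO protease release.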

Sequence | purified protein yield per well [µg]
CDSILSQSLTNTGPYNVLSINESDGIRNGQHYNGATIFYPEGNLTNLASMVFVPGYSNTQLSIQNWGFFLASHGIVTMTIGTNSLLDSHIKRKDALLDALVTVKQENVRVSSPLYNSLDTLKLALGGFSKGGGGAQLAASVGQNIKAIIALYPWLENISSSDLNHNVPVLIVSGSLDIIAPPSLHADVHYMYTPQTTNKLKYELAFGTHDPLTGPNAGSGEVGKKTLSWLQTFLLSDTCFCPYLLDTPNNASIYMSNLNCTEIGTNTNNLQSNTEKKLVKIIDVFGREVSPKKNMILFYVYDNQSVKKIIIK [TEP094] | < 25
CESRRGPDPTRVSVESTAGPFAIATTTVSSGNGFGGGTIYYPTSTAEGRFGGVAIAPGFTKTQSSIAWYGPRLASQGFVVFTIDTNSGLDFPASRGDQLLAALDFLTSSSSVKSRVDANRLAVMGWSMGGGGALEAAKDRPALKAAIPLAGWNTTTEWSSVTVPTLVVACENDSTAPVASHSRPFYDSLTSAQERAFVEMAGAPHGCVTSPTTAVARWTISWLKRFVDGDTRYTQFLCPPPADSTVSTQLTSCPM [TEP177] | < 25
CGDRDAGDPAPTESSLTAPLGPEKYRTEVVPRAYVEAFGGGTIYYPAGRPPGERLGAVTIVPGSRGYQSGMAWYGPLLASRGFIVFTIDTLHLKDQPAKRSLELEAALTYLATRSAVASHVDAERLAVMGHSLGGGGTLDLAATRPNLKAAIPLMPYDKAKDFSNVRVPTLVVAAQHDKIAPVGKHAEVFYRSIPASQPKAYLEIAGATHSFPKRRDATLAKYVIAWLKRYVDGDKRYDRFLCPGPQNDPHVARYASDCTPR [DP095] | < 25
CGLCKAQTCDTLTLDSIYDPGAYSFATLLESDGIRNGPDYAGATIYYPTNGIPPYPAIAICPGHSTFEYTIQAWGPFYASHGIVTITIGTNSIYDYPDARKNAILDALETVRQENVRSGSPLFGYLDLSRLAVSGWSMGGGGAQLAAAADTTIKAVVGLCPWLESWRTAADLNHPVPTLILSGQIDAIAPPYYHADVHYGYIP [TEP133] | < 25
CGTTTSTLTTPAVTPQTLSGAATNPYERGPAPTTALLEAARGPYATASTTVPRSSVSDFGGATIYYPTSTADGTFGGVAISPGYTGTQASVAWLGPRLASHGFVVIVIDTLSRYDYPSSRGDQLRAALRYLTTSSAVRTRVDATRLAVMGHSMGGGGALEAAKDNPALKAAIPLTPWNTDKSWPELTTPTLIFGAQNDSVAPVSSHAIPFYTSLASTLPKAYLELRGASHGAPTSTNTTIAKYAVAWLKRFEDADRRYDPFLCPTPAVSTLLSDARSTCPFN [DP069] | < 25
CSEEPHKAGGPWAGPYEVVTQQVSADDADGGFGDGTVRYPDDGSRDYGVIAASPGLGADESTVAPYGELLASHGFVVITIDTKTPEDSPAQRGRQLLRALDYATERSDAADRADPRRLGVLGHSMGGGGALYAAARNPHIRAAVPLTPYATRRDWHRVEAPTLVVGGSDDEVAPVSEYADAFYEGLSGAREKAYLELKGDHFVATPPDGLVSRQVVAWFGHFLAGAPGSPCPLPSGDGVTESRDTCPFGTRGR [TEP179] | 25.7
CSGSTPTAPAAPAPKATAAPNDRPAPTAQVPRSFERGPAPSEKSVTAKRGPFAFEKIEVPAGSGPGFNKGTIYAPTDTSRGTFGAVVMSPGFASPHTWIDWYGPRLASQGFVVMMLETNTLFDVPLLRGRQIVAALDYLTARSVVRGRVDPSRTAVMGHSMGGGGTLEAARQRPGLKAAVPLAPWNPDYNWGGVVVPTMIIGAQRDVIAPTALMSEAYYNRLTAAPEKAYLVLRGAGHLTFMSPNATIAKYVISWMKRFVDNDSRYDRFLCPPPKPRGLLTVYRGTCPTG [DP037] | < 25
CTWRGPNPPPATLDAPMGPFTTTSSVVTTSPGFGDGTMYYPDTEPGPFGVVAVAPGWLASQNSLDTLGNRIASHGFVVITIDVNRPRSDGPQSRADQLLAALDQVANEAAVAGIADNTRQAVMGHSMGGGGALYASIDRPALKASIPLAPWARGADFSAVTVPTMIIGCEDDTVAPVGSHAIAFYDAIANTVPKAYAEIADASHSCVNDFNTDPLETAEVASSAVSFLKRFVDNDSRYTPFLCPIPELDPPLSDRRATCPYN [TEP148] | < 25
CVFPPAPPPPGSGYTITTVAAGNGFGGGTIYLPEGVTGRRGAVAVVPGFTGTQSTVAWYGPLLAKEGYVVFTIDTNSGWDSPQARGTQLLAALDYLTTQSSAASRVDPARLAVMGHSMGGGGSLEAAKARPSLKAAIPLAGWNSVTNFSTVTVPTLVVA [TEP070] | < 25
DANPYQRGPAPTESSVAAEKGPFAVAQTDVPAGSGQGFNDGTIYYPTDTSQGTFGAVVVMPGFVSPQEWIRWYGPLLASQGFVVMTLDSNTLLDFPGARGDQILAALDYLTTKSKVVDRIDTGRLAVMGWSMGGGGTLEAAAERPSLKADIALAPWDLDNVAAKVKVPSMIIADDTDILAPTGVFAKPFYDAMSTAPDKAFFELKSANHFTFTSYNKTIAKYAVSWLKRFVDDDTRYDQFLCPKPAPSNEITQFEETCPLG [TEP059] | < 25
DEIGQAPTAANITGDGSFSTSSSAIFGQSGFGGGTAYYPNTAGKYPVVAFAPGFLSDWNALNWLGPRVASWGFVVVGVNTNTPFDFPDARGDQLLAALNWAVNSAPAAVRDKADGSRRGVSGWSMGGGGTLEALAKDTTGTVKAGVPLAPWHTNKTWSKVTEPVFIIGGQNDSVAAPASHAIPFYNSLGGPKSYLERAGADHFFPTKSNGTVSRAVVSFFKRHVSADTRFTPFLCGFSGLDVSNFRSNSC [ESM030] | < 25
DEIGQAPTAANITGNGSFAVTSAAVTGASGFGGGTVYYPTTAGTYPVVAIAPGFTQAWSAIQWLGPRLSSWGFVVVGINTNSSLDFPASRGTQLLAALNWAVASAPAAVTSRADGTRRGVAGYSMGGGGTLEALSQDTTGAVKAGVPMAPWHTDTTWQQVTEPVFILGGQNDSTAPVASHAKPMYNSLGGPKTYVELAGAPHSFPRTDNATTSRALVSWFKRWLNGDARFTPFTCGFTGTAISAYQTTAC [ESM099] | < 25
DEIGQAPTPSNITGSGSFSTTSSTITGQSGFGGGTVYYPTASGKYPVVAMVPGFLSDWSSISWLGPRVASWGFVVVGANTNSGLDDPTSRGDQLLAALNWAVNSSPTAVRGKTDGTRRGVAGWSMGGGGTLEALAKDTSGVVKAGVPLAPWHNDKSWNQVNEPVFLIGGENDGVASPDSHAIPFYNSLGGPKSFLERAGANHFFPNSSDPTVSRAVVSFLKRHVSADNRFSPYVCGFSGSAVSDFRSNSC [ESM133] | < 25
DEIGQAPTSSNITGNGSFSVSTYNISSLVSGFGGGVAYYPTTSGRYPVVAVSPGFTARWSSISWIGPRLASWGFVVVGIETNGLYDQPASRGSQLLAALNWAVNSAPSAITSRADGSRRGVAGHSMGGGGTLEALAADTTGNVKAGVPIAPWNSDKTWSGINEAVQIVGGESDTIASVGSHSIPFYNSVSGPKSYVELNGASHFFPQSTNSTLSRALVSWFKRYLNQDARFTPFTCGYGGTAVSDFRTNAC [ESM151] | < 25
DEIGSAPTAATITGNGSFATASTSVSSPSGFRGGQVYYPSTAGTYPVIAVVPGYLSYWSSISWLGPRLASWGFVVVGIETNSIYDQPASRGSQLRAALTWAVNTSPTTVRSRVDANRQGVAGWSMGGGGSLEALKADTSGRIKAAVPMAPWNSDQSWPEVTESVAIVGGQSDSVAPVSSHSIPFYNSLAGPKSYVELAGASHFFPNSDNPSLSRMIVSWFKRWINNDTRFTTFTCGFTGSAISSFRTNAC [ESM178] | 27.5
DENPLERGPDPTESFIEQRRGNYDVAQRSINRMGSDGFRNGTIYYPTDSSDGQFGVIAISPGYTAGESSIAWLGARMASFGFVVVTINTTTRYDQPRQRSTQLLAALDHAMEDSVVGPMIDPERQAVMGHSMGGGGALQAAESRPEIDAVIPLTPWNLKRNWRNIDAATLIIGAERDTIASVRTHSIPFYESLTGADQRGYLELRGASHFAPNFSNTTIAKYSVAWMKRHLDDDERYEKFLTPGPTVGYSSGVSDYRLQ [DP097] | < 25
DEVGQAPTAANIVGDGSFATTSSAITGQSGFGGGTVYYPTTAGRYPVVAVAPGFLSDWNSLNWLGSRVASWGFVVVGVNTNSGFDFPPSRGDQLLAALNWAVGSAPVAVRDKVDGTRRGVAGWSMGGGGTLEALAKDTTGTVKAGVPLAPWHSDKTWEQVSEPVFLVGGQNDTVAAPSSHAIPFYNSLGGQKSYLELAGQAHFFPTTSNPTVSRAIVSWFKRFVSSDNRFTPFTCGYTGSAVSNFRSSAC [ESM100] | < 25
